We go through 23 variants from the supplement of paper PMC7125110.

± gives the standard error. Variants at the floor of the assay were thinned out.

B1: glmS ribozyme (parent)
chain: AUAAAAGCGCCAGAACUACAGAAAUGUAGUUGACGAGGAGGAGGUUUAUCGAAUUUUCGGCGGAUGCCUCCAAA

Conditions in all cases: with glucosamine-6-phosphate
In data set [1] the parent is B1. The data set can be described thus: self-cleavage kobs at 40 uM GlcN6P; higher = faster cleavage; RNA array. The method in brief:
(§1)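 kcat and KM were obtained from weighted Michaelis–Menten fits across concentrations of kobs values. Those came from one- or two-exponential decay fits to per-tile medians normalised to baseline and to non-cleaving reference variants. The variants were barcoded ribozymes transcribed in situ by E. coli RNA polymerase on sequenced MiSeq chips and tracked through a hybridised Cy3 probe at 37 °C, with 40 μM to 10 mM glucosamine-6-phosphate in HEPES/KCl/Mg(OAc)2 buffer flowed in.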

Data set [2] covers variants of B1. The data set can be described thus: self-cleavage kobs at 160 uM GlcN6P; higher = faster cleavage; RNA array. The method in brief:
as §1

In data set [3] the parent is B1. Kind of data set: self-cleavage kobs at 640 uM GlcN6P; higher = faster cleavage; RNA array. The method in brief:
as §1

Data set [4] covers variants of B1. Kind of data set: self-cleavage kobs at 10000 uM GlcN6P; higher = faster cleavage; RNA array. The method in brief:
as §1

Data set [5] covers variants of B1. The data set can be described thus: self-cleavage kobs at 2500 uM GlcN6P; higher = faster cleavage; RNA array. The method in brief: as §1

Turning to G9U A64C, the “self-cleavage kobs at 40 uM GlcN6P” value in data set [1] was less than 1e-05 s⁻¹. Also, the “self-cleavage kobs at 160 uM GlcN6P” value in data set [2] was less than 1e-05 s⁻¹. Further, the “self-cleavage kobs at 640 uM GlcN6P” value in data set [3] was less than 1e-05 s⁻¹. Besides, the “self-cleavage kobs at 10000 uM GlcN6P” value in data set [4] is less than 1e-05 s⁻¹.

For the variant A36U G41U C70G, the “self-cleavage kobs at 40 uM GlcN6P” value in data set [1] is less than 1e-05 s⁻¹.

For the variant G7A G9C C16G, the “self-cleavage kobs at 40 uM GlcN6P” value in data set [1] was less than 1e-05 s⁻¹. For the same variant, in data set [2], the “self-cleavage kobs at 160 uM GlcN6P” value was less than 1e-05 s⁻¹. For the same variant, in data set [3], the “self-cleavage kobs at 640 uM GlcN6P” value was less than 1e-05 s⁻¹. In addition, the “self-cleavage kobs at 10000 uM GlcN6P” value in data set [4] is less than 1e-05 s⁻¹.

As to C16G A42U, the “self-cleavage kobs at 40 uM GlcN6P” value in data set [1] is less than 1e-05 s⁻¹. Besides, the “self-cleavage kobs at 160 uM GlcN6P” value in data set [2] was less than 1e-05 s⁻¹.

In the case of A12C G40A, the “self-cleavage kobs at 40 uM GlcN6P” value in data set [1] came to 0.000112 ± 2.1e-05 s⁻¹. Moreover, in data set [2], the “self-cleavage kobs at 160 uM GlcN6P” value turned out to be 0.000305 ± 8e-05 s⁻¹. In data set [3], the “self-cleavage kobs at 640 uM GlcN6P” value was 0.000633 ± 0.00023 s⁻¹. Further, in data set [5], the “self-cleavage kobs at 2500 uM GlcN6P” value was found to be 0.00149 ± 0.00055 s⁻¹. Further, the “self-cleavage kobs at 10000 uM GlcN6P” value in data set [4] was determined as 0.00569 ± 0.0013 s⁻¹.

Regarding G7U A14G, the “self-cleavage kobs at 40 uM GlcN6P” value in data set [1] was less than 1e-05 s⁻¹. Besides, the “self-cleavage kobs at 160 uM GlcN6P” value in data set [2] is less than 1e-05 s⁻¹. Further, the “self-cleavage kobs at 640 uM GlcN6P” value in data set [3] was less than 1e-05 s⁻¹. Further, in data set [4], the “self-cleavage kobs at 10000 uM GlcN6P” value is less than 1e-05 s⁻¹.

With A15G G37C, the “self-cleavage kobs at 40 uM GlcN6P” value in data set [1] was less than 1e-05 s⁻¹. Moreover, the “self-cleavage kobs at 10000 uM GlcN6P” value in data set [4] came out at 4.76e-05 ± 6.4e-06 s⁻¹.

For the variant U30A U56C A64G, the “self-cleavage kobs at 40 uM GlcN6P” value in data set [1] is less than 1e-05 s⁻¹. Further, the “self-cleavage kobs at 10000 uM GlcN6P” value in data set [4] was 2.96e-05 ± 1.4e-05 s⁻¹.

With G38U G44U U49C, the “self-cleavage kobs at 40 uM GlcN6P” value in data set [1] was less than 1e-05 s⁻¹. Further, the “self-cleavage kobs at 10000 uM GlcN6P” value in data set [4] is less than 1e-05 s⁻¹.

As to A14U U56C, the “self-cleavage kobs at 40 uM GlcN6P” value in data set [1] came out at 5.38e-05 ± 1.8e-05 s⁻¹. Also, the “self-cleavage kobs at 640 uM GlcN6P” value in data set [3] was 0.000234 ± 4.8e-05 s⁻¹. In addition, the “self-cleavage kobs at 2500 uM GlcN6P” value in data set [5] came out at 0.000307 ± 7.6e-05 s⁻¹. The “self-cleavage kobs at 10000 uM GlcN6P” value in data set [4] turned out to be 0.00138 ± 0.00027 s⁻¹.

For the variant C16U A39C, in data set [1], the “self-cleavage kobs at 40 uM GlcN6P” value came out at 0.000107 ± 1.4e-05 s⁻¹. Besides, the “self-cleavage kobs at 2500 uM GlcN6P” value in data set [5] turned out to be 0.00222 ± 0.00082 s⁻¹. In addition, in data set [4], the “self-cleavage kobs at 10000 uM GlcN6P” value was found to be 0.00545 ± 0.0006 s⁻¹.

In the case of G37C U65G U69G, the “self-cleavage kobs at 40 uM GlcN6P” value in data set [1] was less than 1e-05 s⁻¹. In data set [4], the “self-cleavage kobs at 10000 uM GlcN6P” value is less than 1e-05 s⁻¹.

In the case of C11G G13U, in data set [1], the “self-cleavage kobs at 40 uM GlcN6P” value is less than 1e-05 s⁻¹. Further, the “self-cleavage kobs at 160 uM GlcN6P” value in data set [2] is less than 1e-05 s⁻¹. For the same variant, the “self-cleavage kobs at 640 uM GlcN6P” value in data set [3] was less than 1e-05 s⁻¹. For the same variant, the “self-cleavage kobs at 2500 uM GlcN6P” value in data set [5] is less than 1e-05 s⁻¹. For the same variant, the “self-cleavage kobs at 10000 uM GlcN6P” value in data set [4] was less than 1e-05 s⁻¹.

Turning to G29U U30G C34U, in data set [1], the “self-cleavage kobs at 40 uM GlcN6P” value was less than 1e-05 s⁻¹. For the same variant, in data set [4], the “self-cleavage kobs at 10000 uM GlcN6P” value was less than 1e-05 s⁻¹.

On to C11G G43C A64U, for which the “self-cleavage kobs at 40 uM GlcN6P” value in data set [1] was less than 1e-05 s⁻¹. Besides, in data set [4], the “self-cleavage kobs at 10000 uM GlcN6P” value is less than 1e-05 s⁻¹.

G37A G63C: the “self-cleavage kobs at 40 uM GlcN6P” value in data set [1] was less than 1e-05 s⁻¹. In data set [2], the “self-cleavage kobs at 160 uM GlcN6P” value was less than 1e-05 s⁻¹. Also, the “self-cleavage kobs at 640 uM GlcN6P” value in data set [3] is less than 1e-05 s⁻¹. For the same variant, in data set [5], the “self-cleavage kobs at 2500 uM GlcN6P” value is less than 1e-05 s⁻¹. Moreover, the “self-cleavage kobs at 10000 uM GlcN6P” value in data set [4] was less than 1e-05 s⁻¹.

On to A12C G43U C71A, for which, in data set [1], the “self-cleavage kobs at 40 uM GlcN6P” value was less than 1e-05 s⁻¹.

As to C16U G32C G38C, the “self-cleavage kobs at 40 uM GlcN6P” value in data set [1] was less than 1e-05 s⁻¹.

With G7A C8G, in data set [1], the “self-cleavage kobs at 40 uM GlcN6P” value is less than 1e-05 s⁻¹. Further, the “self-cleavage kobs at 160 uM GlcN6P” value in data set [2] is less than 1e-05 s⁻¹. Further, the “self-cleavage kobs at 640 uM GlcN6P” value in data set [3] was less than 1e-05 s⁻¹. Also, the “self-cleavage kobs at 2500 uM GlcN6P” value in data set [5] is less than 1e-05 s⁻¹. For the same variant, the “self-cleavage kobs at 10000 uM GlcN6P” value in data set [4] was less than 1e-05 s⁻¹.

In the case of C10U A52C U57G, the “self-cleavage kobs at 40 uM GlcN6P” value in data set [1] is less than 1e-05 s⁻¹. In data set [3], the “self-cleavage kobs at 640 uM GlcN6P” value is less than 1e-05 s⁻¹. Moreover, the “self-cleavage kobs at 2500 uM GlcN6P” value in data set [5] is less than 1e-05 s⁻¹. For the same variant, in data set [4], the “self-cleavage kobs at 10000 uM GlcN6P” value is less than 1e-05 s⁻¹.

For the variant G13A U46C G59A, the “self-cleavage kobs at 40 uM GlcN6P” value in data set [1] is less than 1e-05 s⁻¹.

On to C11U A14C A36G C50A, for which the “self-cleavage kobs at 40 uM GlcN6P” value in data set [1] is less than 1e-05 s⁻¹. Also, the “self-cleavage kobs at 10000 uM GlcN6P” value in data set [4] was less than 1e-05 s⁻¹.

Regarding A36G G60A, the “self-cleavage kobs at 40 uM GlcN6P” value in data set [1] was less than 1e-05 s⁻¹. For the same variant, the “self-cleavage kobs at 160 uM GlcN6P” value in data set [2] was less than 1e-05 s⁻¹. Moreover, the “self-cleavage kobs at 640 uM GlcN6P” value in data set [3] was less than 1e-05 s⁻¹.
